The record followed here is patent CN111378038A (UNIV FUDAN, dated 2020).

Experiment [1] addresses T1, PD-1(ECD)-hFc融合蛋白 (human, UniProt Q15116 25-170).
T1 construct: extracellular domain; It was biotin-labelled for the panning and coated on the plate in the ELISA; also called PD-1(ECD)-hFc蛋白; PD-1蛋白; not shown: hFc (human Fc)
Kind of experiment: ELISA, PD-1(ECD)-hFc coated, serially diluted antibody, HRP-anti-Fab detection; reference: P2-G12 Fab.

For experiment [2], the target named is T2, 人全长PD-1蛋白 (过表达于HEK293T细胞) (human, UniProt Q15116 25-288).
T2 construct: whole, on cells; also called 过表达PD-1的HEK293T细胞
Briefly: flow cytometry on HEK293T cells overexpressing human full-length PD-1, anti-human IgG1-FITC detection. (In general: A flow cytometer gives signals particle by particle.)

Experiment [3] deals with T1, PD-1(ECD)-hFc融合蛋白. Kind of experiment: ELISA, PD-1(ECD)-hFc coated, serially diluted antibody, HRP-anti-Fab detection. For orientation: ELISA stands for enzyme-linked immunosorbent assay.

T1 sequence (Q15116 25-170): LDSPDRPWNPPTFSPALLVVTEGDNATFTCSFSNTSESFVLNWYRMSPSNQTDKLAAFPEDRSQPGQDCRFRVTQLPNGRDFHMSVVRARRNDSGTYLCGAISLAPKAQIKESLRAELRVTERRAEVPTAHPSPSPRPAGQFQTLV
T2 sequence (Q15116 25-288): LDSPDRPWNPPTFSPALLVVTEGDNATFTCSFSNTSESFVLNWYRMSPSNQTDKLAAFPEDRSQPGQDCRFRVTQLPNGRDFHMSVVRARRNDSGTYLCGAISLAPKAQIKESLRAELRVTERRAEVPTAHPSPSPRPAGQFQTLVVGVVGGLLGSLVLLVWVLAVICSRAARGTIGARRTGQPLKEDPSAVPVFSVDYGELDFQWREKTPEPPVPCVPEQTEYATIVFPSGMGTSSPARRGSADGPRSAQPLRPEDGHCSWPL

B1: P2-G12 IgG1 (antibody, V domains shown)
VH: EVQLVQSGGGLVQPGGSLRLSCAASGFTFSSYSMNWVRQAPGKGLEWVSAISGSGGSTYYADSVKGRFTISRDNSKNTLYLQMNSLRAEDTAVYYCARDPYGSGSYYRGDAFDIWGQGTMVTVSS
VL: ELTQPPSVSVAPGKTARITCGGNNIGSKSVHWYQQKPGQAPVLAIYYDSDRPSGIPERFSGSNSGNTATLTISRVEVGDEADYYCQVWDSVSDVVFGGGTKLTVL
notes: also called 单克隆抗体P2-G12
As for B1, the fold increase of binding ability against the Fab form with PD-1(ECD)-hFc融合蛋白 [1] is 100 fold. Moreover, the binding result in experiment [2] was “binds”.

B2: P2-G12 Fab (Fab, V domains shown)
VH: EVQLVQSGGGLVQPGGSLRLSCAASGFTFSSYSMNWVRQAPGKGLEWVSAISGSGGSTYYADSVKGRFTISRDNSKNTLYLQMNSLRAEDTAVYYCARDPYGSGSYYRGDAFDIWGQGTMVTVSS
VL: ELTQPPSVSVAPGKTARITCGGNNIGSKSVHWYQQKPGQAPVLAIYYDSDRPSGIPERFSGSNSGNTATLTISRVEVGDEADYYCQVWDSVSDVVFGGGTKLTVL
notes: Fully human Fab from a phage display library, expressed in E. coli HB2151 and purified on Ni-NTA; P2-G12 is the only antibody described; also called PD-1抗体 (Fab形式)
B2: the binding result in the experiment with PD-1(ECD)-hFc融合蛋白 [3] is listed as “binds”.
